Laboratory results as given in patent US20030186853A1, “Novel corticotropin-releasing hormone analogs” (The Regents of the University of California, Office of …, published 2003).
Like-named read-outs stand apart in the source and are kept apart here. Non-standard residues stand in square brackets, D forms with d. No end group written: not given here.

Tests used:
CRH1 receptor [1] = target: T1, CRH1 receptor (mouse, UniProt P35347)
CRH1 receptor [2] = target: T1, CRH1 receptor; test: cell-based or functional assay

| EC50, inhibition of proliferation of Cloudman melanoma cells (cell count) (CRH1 receptor [1]) | EC50, inhibition of proliferation of Cloudman melanoma cells (cell count) (CRH1 receptor [2]) | Molecule |
| --- | --- | --- |
| 0.36 picomolar | – | acetyl-cyclo(30-33)[D-Phe^12, Nle^18, D-Glu^20, Nle^21, Glu^30, D-Ala^32]-urotensin I(4-41) (peptide) |
| – | 16 picomolar | SEEPPISLDLTFHLLREVL[dE]MARAEQLAQQAHSNRKLMEII-NH2 [[D-Glu^20]-CRH] |
| – | 8.6 picomolar | SEEPPISLDLTFHLLREVLEMARAEQLAQQAHSNRKLMEII-NH2 (ligand) [Corticotropin-releasing hormone (CRH), human/rat] |
| – | 82 picomolar | SEEP[dP]ISLDLTFHLLREVLEMARAEQLAQQAHSNRKLMEII-NH2 [[D-Pro^5]-CRH] |
| – | 9.5 picomolar | DNPSLSIDLTFHLLRTLLELARTQSQRERAEQNRIIFDSV-NH2 (ligand) [Urocortin (human)] |
